Laboratory results reported in patent publication US20200079854A1 (Johns Hopkins, published 2020).

B1: KRAS_G12D_A11_c118 (scFv)
scFv: DIQMTQSPSSLSASVGDRVTITCRASQDVNTAVAWYQQKPGKAPKLLIYSASFLYSGVPSRFSGSRSGTDFTLTISSLQPEDFATYYCQQYDFTPMTFGQGTKVEIKRTGGGSGGGGSGGGASEVQLVESGGGLVQPGGSLRLSCAASGFNISYAKMHWVRQAPGKGLEWVAYLTYWGGYTNYADSVKGRFTISADTSKNTAYLQMNSLRAEDTAVYYCSRGEYGTYMDYWGQGTLVTVSS
B2: KRAS_G12D_A11_c114 (scFv)
scFv: DIQMTQSPSSLSASVGDRVTITCRASQDVNTAVAWYQQKPGKAPKLLIYSASFLYSGVPSRFSGSRSGTDFTLTISSLQPEDFATYYCQQYAYYPVTFGQGTKVEIKRTGGGSGGGGSGGGASEVQLVESGGGLVQPGGSLRLSCAASGFNLSGYYMHWVRQAPGKGLEWVAWFSPYSGYTYYADSVKGRFTISADTSKNTAYLQMNSLRAEDTAVYYCSRTHSSIYHSFDYWGQGTLVTVSS
B3: KRAS_G12D_A11_c16 (scFv)
scFv: DIQMTQSPSSLSASVGDRVTITCRASQDVNTAVAWYQQKPGKAPKLLIYSASFLYSGVPSRFSGSRSGTDFTLTISSLQPEDFATYYCQQYSYSPITFGQGTKVEIKRTGGGSGGGGSGGGASEVQLVESGGGLVQPGGSLRLSCAASGFNISDSYMHWVRQAPGKGLEWVATFSPYSSNTWYADSVKGRFTISADTSKNTAYLQMNSLRAEDTAVYYCSRSQFTFYQYFDYWGQGTLVTVSS
B4: KRAS_G12D_A11_c117 (scFv)
scFv: DIQMTQSPSSLSASVGDRVTITCRASQDVNTAVAWYQQKPGKAPKLLIYSASFLYSGVPSRFSGSRSGTDFTLTISSLQPEDFATYYCQQYDYRPVTFGQGTKVEIKRTGGGSGGGGSGGGASEVQLVESGGGLVQPGGSLRLSCAASGFNVSTSGMHWVRQAPGKGLEWVAFIYGAYSGTYYADSVKGRFTISADTSKNTAYLQMNSLRAEDTAVYYCSRSQSYTYWSAMDYWGQGTLVTVSS
B5: KRAS_G12D_A11_c17 (scFv)
scFv: DIQMTQSPSSLSASVGDRVTITCRASQDVNTAVAWYQQKPGKAPKLLIYSAYFLYSGVPSRFSGSRSGTDFTLTISSLQPEDFATYYCQQYSAYYQPITFGQGTKVEIKRTGGGSGGGGSGGGASEVQLVESGGGLVQPGGSLRLSCAASGFNIFSDQMHWVRQAPGKGLEWVAGFMPYDSYYTNYADSVKGRFTISADTSKNTAYLQMNSLRAEDTAVYYCSRMSVRNAFDYWGQGTLVTVSS
B6: KRAS_G12D_A11_c115 (scFv)
scFv: DIQMTQSPSSLSASVGDRVTITCRASQDVNTAVAWYQQKPGKAPKLLIYSASFLYSGVPSRFSGSRSGTDFTLTISSLQPEDFATYYCQQYSYMPITFGQGTKVEIKRTGGGSGGGGSGGGASEVQLVESGGGLVQPGGSLRLSCAASGFNVSGQYMHWVRQAPGKGLEWVAVISPVSGNTYYADSVKGRFTISADTSKNTAYLQMNSLRAEDTAVYYCSRPMKTSYYGAFDYWGQGTLVTVSS
B7: KRAS_G12D_A11_c14 (scFv)
scFv: DIQMTQSPSSLSASVGDRVTITCRASQDVNTAVAWYQQKPGKAPKLLIYSASFLYSGVPSRFSGSRSGTDFTLTISSLQPEDFATYYCQQYSFYPFTFGQGTKVEIKRTGGGSGGGGSGGGASEVQLVESGGGLVQPGGSLRLSCAASGFNFGSYIHWVRQAPGKGLEWVAIISGYSGNTYYADSVKGRFTISADTSKNTAYLQMNSLRAEDTAVYYCSRSNQSAYSYMDYWGQGTLVTVSS
B8: KRAS_G12D_A11_c110 (scFv)
scFv: DIQMTQSPSSLSASVGDRVTITCRASQDVNTAVAWYQQKPGKAPKLLIYSASFLYSGVPSRFSGSRSGTDFTLTISSLQPEDFATYYCQQYEYVPHTFGQGTKVEIKRTGGGSGGGGSGGGASEVQLVESGGGLVQPGGSLRLSCAASGFNISYGYMHWVRQAPGKGLEWVAKFHYGSGNTYYADSVKGRFTISADTSKNTAYLQMNSLRAEDTAVYYCSRSNYYYLDYWGQGTLVTVSS
B9: KRAS_G12D_A11_c112 (scFv)
scFv: DIQMTQSPSSLSASVGDRVTITCRASQDVNTAVAWYQQKPGKAPKLLIYSASFLYSGVPSRFSGSRSGTDFTLTISSLQPEDFATYYCQQYSYMPITFGQGTKVEIKRTGGGSGGGGSGGGASEVQLVESGGGLVQPGGSLRLSCAASGFNISYQHIHWVRQAPGKGLEWVAVFMPYQGSTYYADSVKGRFTISADTSKNTAYLQMNSLRAEDTAVYYCSRANIYSSHSFFDYWGQGTLVTVSS
B10: KRAS_G12D_A11_c119 (scFv)
scFv: DIQMTQSPSSLSASVGDRVTITCRASQDVNTAVAWYQQKPGKAPKLLIYSASFLYSGVPSRFSGSRSGTDFTLTISSLQPEDFATYYCQQYSSSSPVTFGQGTKVEIKRTGGGSGGGGSGGGASEVQLVESGGGLVQPGGSLRLSCAASGFNFSSYVMHWVRQAPGKGLEWVAVVYPDSGGTYYADSVKGRFTISADTSKNTAYLQMNSLRAEDTAVYYCSRTSSYYAFDYWGQGTLVTVSS
B11: KRAS_G12D_A11_c19 (scFv)
scFv: DIQMTQSPSSLSASVGDRVTITCRASQDVNTAVAWYQQKPGKAPKLLIYSASFLYSGVPSRFSGSRSGTDFTLTISSLQPEDFATYYCQQYSYYPITFGQGTKVEIKRTGGGSGGGGSGGGASEVQLVESGGGLVQPGGSLRLSCAASGFNLSYSYMHWVRQAPGKGLEWVAVISGFSGNTYYADSVKGRFTISADTSKNTAYLQMNSLRAEDTAVYYCSRSDSYYTAMDYWGQGTLVTVSS
B12: H/R/N RAS Q61R_A1_c116 (scFv)
scFv: DIQMTQSPSSLSASVGDRVTITCRASQDVNTAVAWYQQKPGKAPKLLIYSASFLYSGVPSRFSGSRSGTDFTLTISSLQPEDFATYYCQQAHMIPITFGQGTKVEIKRTGGGSGGGGSGGGASEVQLVESGGGLVQPGGSLRLSCAASGFNFSFPGMHWVRQAPGKGLEWVAWFVGYDGYTYYADSVKGRFTISADTSKNTAYLQMNSLRAEDTAVYYCSRDYYSFSMDYWGQGTLVTVSS
B13: H/K/N RAS Q61K_A1_c16 (scFv)
scFv: DIQMTQSPSSLSASVGDRVTITCRASQDVNTAVAWYQQKPGKAPKLLIYSASFLYSGVPSRFSGSRSGTDFTLTISSLQPEDFATYYCQQHYYSPVTFGQGTKVEIKRTGGGSGGGGSGGGASEVQLVESGGGLVQPGGSLRLSCAASGFNIFYQDMHWVRQAPGKGLEWVAMIYPDYDYTYYADSVKGRFTISADTSKNTAYLQMNSLRAEDTAVYYCSRTYSVYMDYWGQGTLVTVSS
B14: H/K/N RAS Q61H_A1_c10 (scFv)
scFv: DIQMTQSPSSLSASVGDRVTITCRASQDVNTAVAWYQQKPGKAPKLLIYSASFLYSGVPSRFSGSRSGTDFTLTISSLQPEDFATYYCQQGYFYYPNTFGQGTKVEIKRTGGGSGGGGSGGGASEVQLVESGGGLVQPGGSLRLSCAASGFNIGYYGMHWVRQAPGKGLEWVATVYPGGGYTSYADSVKGRFTISADTSKNTAYLQMNSLRAEDTAVYYCSRYYYYGFDYWGQGTLVTVSS
B15: H/K/N RAS Q61K_A1_c18 (scFv)
scFv: DIQMTQSPSSLSASVGDRVTITCRASQDVNTAVAWYQQKPGKAPKLLIYSASFLYSGVPSRFSGSRSGTDFTLTISSLQPEDFATYYCQQYAYAPFTFGQGTKVEIKRTGGGSGGGGSGGGASEVQLVESGGGLVQPGGSLRLSCAASGFNVSYSMIHWVRQAPGKGLEWVARVWGDGGVTYYADSVKGRFTISADTSKNTAYLQMNSLRAEDTAVYYCSRGSYYAFDYWGQGTLVTVSS

These binders were tested against KRAS wt(8-16) peptide … with HLA-A11 and b2M on peptide-pulsed MINO cells (human) (assay: flow cytometry, phage-displayed scFv on peptide-pulsed MINO cells (FIG. 10)).
Procedure: (§1) Cells were stained with 10 μL of precipitated phage per 100 μL of cells, washed and stained with rabbit anti-M13 antibody, then washed and stained with anti-Rabbit-PE antibody. Cells were stained with a live/dead Near-IR dye, washed, and analyzed by an LSRII flow cytometer.
(§2) The pulsed cells were pelleted, washed once in cold stain buffer (PBS containing 0.5% BSA, 2 mM EDTA, and 0.1% sodium azide), and resuspended in 100 μL of stain buffer. Phage staining was performed on ice with 10 uL (approximately 1×10⁹) phage for 1 hour in 100 uL total volume, followed by one 4 mL wash in cold stain buffer. Cells were then stained with 1 uL of rabbit anti-M13 antibody (Pierce, Rockford, Ill.) in 100 uL total volume on ice for 1 hour and washed once with 4 mL of cold stain buffer. Cells were stained with anti-rabbit-PE (Biolegend) on ice for 1 hour in 100 uL total volume, followed by incubation with LIVE/DEAD Fixable Near-IR Dead Cell Stain (Thermo Fisher) for 10 min at room temperature per manufacturer's instructions. Cells were washed once in 4 mL of stain buffer followed by resuspension in 300 uL of stain buffer before analysis. Stained cells were analyzed using an LSRII flow cytometer (Becton Dickinson, Mansfield, Mass.).

Binding result, no binding:
B1
B2
B3
B4
B5
B6
B7
B8
B9
B10
B11

These binders were tested against H/K/N RAS wt(55-64) peptide … with HLA-A1 and b2M on peptide-pulsed SigM5 cells (human) (assay: flow cytometry, phage-displayed scFv on peptide-pulsed SigM5 cells (FIG. 14)).
Procedure: as §1, §2

Binding result, no binding:
B12
B13
B14
B15
